{"source": "paper PMC11169542", "about": "“A probe for NIR-II imaging and multimodal analysis of early Alzheimer’s disease by targeting CTGF” (Nature Communications, 2024)", "key": {"[1]": {"molecular_target": "T1, CTGF (Homo sapiens, UniProt P29279)", "T1 sequence (P29279 27-349)": "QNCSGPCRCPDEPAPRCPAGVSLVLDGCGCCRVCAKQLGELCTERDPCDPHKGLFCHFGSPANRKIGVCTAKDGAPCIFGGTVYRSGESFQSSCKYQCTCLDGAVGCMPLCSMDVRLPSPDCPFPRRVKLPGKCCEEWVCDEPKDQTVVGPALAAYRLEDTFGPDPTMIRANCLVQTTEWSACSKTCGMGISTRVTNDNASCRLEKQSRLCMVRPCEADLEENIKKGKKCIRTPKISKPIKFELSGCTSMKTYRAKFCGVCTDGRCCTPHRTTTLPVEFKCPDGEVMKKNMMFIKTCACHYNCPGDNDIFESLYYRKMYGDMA", "assay": "DGC fluorescence labelling of human postmortem brain sections", "set-up": "The brain tissue samples of autopsy-confirmed AD patients were obtained from the Chinese Brain Bank Center; from tissue; host or cells: postmortem human brain sections (hippocampus, cortex) of AD patients and healthy controls", "conditions": "for fluorescence (FL) intensity of DGC: cortex section, ImageJ", "experimental": "The brain tissue samples of autopsy-confirmed AD patients were obtained from the Chinese Brain Bank Center (CBBC) and Human Brain Bank, Central South University Xiangya School of Medicine. First, the brain sections were air-dried for 15 min at room temperature, followed by immersion in water. 5% H2O2 was applied for 15 min at room temperature. The sections were washed three times with PBS for 5 min each time. Then, tissue repair was performed using trypsin at a temperature of 37 °C for 5 min and washed three times with PBS. We chose 10% sheep serum to block for a duration of 20 min at 37°. Primary antibodies (CTGF antibody and Aβ antibody) were added to the sections overnight at 4 °C. FITC-labeled Goat Anti-Rabbit IgG (H + L) (1: dilution 1:200, Bioss, Cat#bs-0370R-FITC) was applied and incubated at 37 °C for 20 min in darkness. Subsequent washing steps involved rinsing the sections three times with PBS, each time lasting for 5 min while avoiding exposure to light. DAPI staining was performed, taking care to store the samples away from light during the 5-min procedure. Then observed by the CLSM system. Then, we chose the optimal incubation concentration of DGC (200 μM) was used to determine the conditions using DAB Horseradish Peroxidase Color Development Kit. After the brain sections were co-stained by DGC (200 μM) at 4 °C overnight, a DAB chromogenic agent was added to the brain tissue sections to explore whether DGC can catalyze DAB solutions to produce insoluble brown precipitate to attach the brain tissue sections with an optical microscope. Finally, the brain tissue sections were digested with aqua regia to measure the Au content by the ICP-MS system."}, "[2]": {"molecular_target": "T2, CTGF (Mus musculus, UniProt P29268)", "T2 construct": "brain sections of the age-matched wild-type C57BL/6J mice were used as controls; from tissue; host or cells: brain of APP/PS1 transgenic and wild-type C57BL/6J mice (sections, living animal, perfused isolated brain)", "T2 sequence (P29268 26-348)": "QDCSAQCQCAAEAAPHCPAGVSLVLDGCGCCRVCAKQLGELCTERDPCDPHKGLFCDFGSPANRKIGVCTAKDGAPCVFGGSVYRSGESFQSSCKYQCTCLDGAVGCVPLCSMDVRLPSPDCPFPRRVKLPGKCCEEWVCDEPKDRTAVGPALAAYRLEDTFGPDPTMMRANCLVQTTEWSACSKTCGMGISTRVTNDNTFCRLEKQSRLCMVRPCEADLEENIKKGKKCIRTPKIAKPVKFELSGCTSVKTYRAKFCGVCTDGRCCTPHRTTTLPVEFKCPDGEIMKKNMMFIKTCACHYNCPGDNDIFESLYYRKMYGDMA", "assay": "ICP-MS of Au content in DGC-labelled mouse brain sections", "set-up": "species or system APP/PS1 and wild-type C57BL/6J mice", "experimental": "The DGC in the brain section was measured by ICP-MS. Briefly, the brain sections were digested with 5 mL mix solution (HNO3 and H2O2 = 3:1) overnight. Then, each section was digested at a mild boiling temperature until the solution was evaporated to 0.1–0.2 mL and added 5 mL aqua regia (HCl: HNO3 = 3:1) overnight. Then each section was digested at a mild boiling temperature until the solution was evaporated to 0.1– 0.2 mL and diluted by 2% HNO3 and 1% HCl to the final volume."}, "[3]": {"molecular_target": "T2, CTGF", "assay": "DAB chromogenic imaging of DGC-labelled mouse brain sections", "set-up": "species or system APP/PS1 and wild-type C57BL/6J mice", "conditions": "200 μM DGC + DAB", "experimental": "To observe the expression level of CTGF in the brain section with the naked eye, we optimized the conditions for labeling WT mice, 3-month-old APP/PS1 mice and 9-month-old APP/PS1 mice stained with DGC. According to the study, the optimal incubation concentration of DGC (200 μM) was used to determine the conditions using the DAB Horseradish Peroxidase Color Development Kit. After the brain sections were co-stained by DGC (200 μM) at 4 °C overnight, a DAB chromogenic agent was added to the brain sections. […] After the brown product was imaged by optical microscopy and analyzed by Image Pro Plus software."}}, "note": "Ends that are not written are not given here."}
{"substance": "DGC: CTGF-targeting peptide-coated gold nanocluster: one Au26 gold nanocluster coated by eight DAG cyclic peptides, NIR-II and red fluorescence (CDAGRKQKC; also: cyclic peptide, ring not given here, eight peptides on one Au26 nanocluster via Cys Au-S bonds)", "values": [{"measurement": "FL Intensity", "setting": "[1]; AD 1, Cortex section stained with DGC", "result": 8.08}, {"measurement": "FL Intensity", "setting": "[1]; AD 1, Hippocampus section stained with DGC", "result": 9.357}, {"measurement": "FL Intensity", "setting": "[1]; AD 2, Cortex section stained with DGC", "result": 14.1982}, {"measurement": "FL Intensity", "setting": "[1]; AD 2, Hippocampus section stained with DGC", "result": 17.484}, {"measurement": "fluorescence (FL) intensity of DGC", "setting": "[1]; Case 1 (healthy control, Thal 0), section 1", "result": 0.3032}, {"measurement": "fluorescence (FL) intensity of DGC", "setting": "[1]; Case 1 (healthy control, Thal 0), section 2", "result": 0.3289}, {"measurement": "fluorescence (FL) intensity of DGC", "setting": "[1]; Case 1 (healthy control, Thal 0), section 3", "result": 0.3505}, {"measurement": "fluorescence (FL) intensity of DGC", "setting": "[1]; Case 2 (healthy control, Thal 0), section 1", "result": 0.2446}, {"measurement": "fluorescence (FL) intensity of DGC", "setting": "[1]; Case 2 (healthy control, Thal 0), section 2", "result": 0.3615}, {"measurement": "fluorescence (FL) intensity of DGC", "setting": "[1]; Case 2 (healthy control, Thal 0), section 3", "result": 0.163}, {"measurement": "fluorescence (FL) intensity of DGC", "setting": "[1]; Case 3 (AD, Thal 1), section 1", "result": 0.6904}, {"measurement": "fluorescence (FL) intensity of DGC", "setting": "[1]; Case 3 (AD, Thal 1), section 2", "result": 0.8926}, {"measurement": "fluorescence (FL) intensity of DGC", "setting": "[1]; Case 3 (AD, Thal 1), section 3", "result": 0.6063}, {"measurement": "fluorescence (FL) intensity of DGC", "setting": "[1]; Case 4 (AD, Thal 1), section 1", "result": 0.9911}, {"measurement": "fluorescence (FL) intensity of DGC", "setting": "[1]; Case 4 (AD, Thal 1), section 2", "result": 1.101}, {"measurement": "fluorescence (FL) intensity of DGC", "setting": "[1]; Case 4 (AD, Thal 1), section 3", "result": 1.556}, {"measurement": "FL Intensity", "setting": "[1]; HC 1, Cortex section stained with DGC", "result": 1.2358}, {"measurement": "FL Intensity", "setting": "[1]; HC 1, Hippocampus section stained with DGC", "result": 1.043}, {"measurement": "FL Intensity", "setting": "[1]; HC 2, Cortex section stained with DGC", "result": 1.632}, {"measurement": "FL Intensity", "setting": "[1]; HC 2, Hippocampus section stained with DGC", "result": 6.0176}, {"measurement": "ICP-MS Au content per section", "setting": "[2]; 3-month-old APP/PS1 mouse brain section incubated with DGC, section 1", "result": 36.3}, {"measurement": "ICP-MS Au content per section", "setting": "[2]; 3-month-old APP/PS1 mouse brain section incubated with DGC, section 2", "result": 50.92}, {"measurement": "ICP-MS Au content per section", "setting": "[2]; 3-month-old APP/PS1 mouse brain section incubated with DGC, section 3", "result": 74.61}, {"measurement": "ICP-MS Au content per section", "setting": "[2]; 9-month-old APP/PS1 mouse brain section incubated with DGC, section 1", "result": 87.62}, {"measurement": "ICP-MS Au content per section", "setting": "[2]; 9-month-old APP/PS1 mouse brain section incubated with DGC, section 2", "result": 82.72}, {"measurement": "ICP-MS Au content per section", "setting": "[2]; 9-month-old APP/PS1 mouse brain section incubated with DGC, section 3", "result": 97.01}, {"measurement": "ICP-MS Au content per section", "setting": "[2]; WT mouse brain section incubated with DGC, section 1", "result": 11.2}, {"measurement": "ICP-MS Au content per section", "setting": "[2]; WT mouse brain section incubated with DGC, section 2", "result": 23.11}, {"measurement": "ICP-MS Au content per section", "setting": "[2]; WT mouse brain section incubated with DGC, section 3", "result": 12.01}, {"measurement": "DAB chromogenic imaging intensity", "setting": "[3]; 3-month-old APP/PS1 mouse brain section, section 1", "result": 0.198}, {"measurement": "DAB chromogenic imaging intensity", "setting": "[3]; 3-month-old APP/PS1 mouse brain section, section 2", "result": 0.151}, {"measurement": "DAB chromogenic imaging intensity", "setting": "[3]; 3-month-old APP/PS1 mouse brain section, section 3", "result": 0.127}, {"measurement": "DAB chromogenic imaging intensity", "setting": "[3]; 9-month-old APP/PS1 mouse brain section, section 1", "result": 0.282}, {"measurement": "DAB chromogenic imaging intensity", "setting": "[3]; 9-month-old APP/PS1 mouse brain section, section 2", "result": 0.35}, {"measurement": "DAB chromogenic imaging intensity", "setting": "[3]; 9-month-old APP/PS1 mouse brain section, section 3", "result": 0.237}, {"measurement": "DAB chromogenic imaging intensity", "setting": "[3]; WT mouse brain section, Image Pro Plus, section 1", "result": 0.03}, {"measurement": "DAB chromogenic imaging intensity", "setting": "[3]; WT mouse brain section, Image Pro Plus, section 2", "result": 0.061}, {"measurement": "DAB chromogenic imaging intensity", "setting": "[3]; WT mouse brain section, Image Pro Plus, section 3", "result": 0.019}]}
